Results reported in PMC9753469.

Target: MBP-KRAB (ZNF93 KRAB E35R), P35789
Experiment: SPR
Conditions: chain shown with the change; MBP-KRAB immobilized on the chip; KAP1 RBCC as mobile phase

Chain of MBP-KRAB (ZNF93 KRAB E35R), P35789 (P35789 2-71 E35R): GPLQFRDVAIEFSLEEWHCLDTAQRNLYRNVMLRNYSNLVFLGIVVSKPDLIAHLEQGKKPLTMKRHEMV

Kd: 71.8 nM
B1: m11; m9 KAP1:R311E; ZNF93 KRAB:E35R (protein)
chain: MAASAAAASAAAASAASGSPGPGEGSAGGEKRSTAPSAAASASASAAASSPAGGGAEALELLEHCGVCRERLRPEREPRLLPCLHSACSACLGPAAPAAANSSGDGGAAGDGTVVDCPVCKQQCFSKDIVENYFMRDSGSKAATDAQDANQCCTSCEDNAPATSYCVECSEPLCETCVEAHQRVKYTKDHTVRSTGPAKSRDGERTVYCNVHKHEPLVLFCESCDTLTCRDCQLNAHKDHQYQFLEDAVRNQRKLLASLVKRLGDKHATLQKSTKEVRSSIRQVSDVQKRVQVDVKMAILQIMKELNKRGEVLVNDAQKVTEGQQERLERQHWTMTKIQKHQEHILRFASWALESDNNTALLLSKKLIYFQLHRALKMIVDPVEPHGEMKFQWDLNAWTKSAEAFGKIVAERPGTNSTGPAPMAPPRAPGPLSKQGSGSSQPMEVQEGYGFGSGDDPYSSAEPHVSGVKRSRSGEGEVSGLMRKVPRVSLERLDLDLTADSQPPVFKVFPGSTTEDYNLIVIERGAAAAATGQPGTAPAGTPGAPPLAGMAIVKEEETEAAIGAPPTATEGPETKPVLMALAEGPGAEGPRLASPSGSTSSGLEVVAPEGTSAPGGGPGTLDDSATICRVCQKPGDLVMCNQCEFCFHLDCHLPALQDVPGEEWSCSLCHVLPDLKEEDGSLSLDGADSTGVVAKLSPANQRKCERVLLALFCHEPCRPLHQLATDSTFSLDQPGGTLDLTLIRARLQEKLSPPYSSPQEFAQDVGRMFKQFNKLTEDKADVQSIIGLQRFFETRMNEAFGDTKFSAVLVEPPPMSLPGAGLSSQELSGGPGDGP
